Results reported in patent publication US8460910B2 (Illumina Cambridge Limited, priority 2003, dated 2013).
One block for each molecule: values may come before it.

Columns and labels:
[1] = tested on: cordycepin (3′deoxy adenosine triphosphate); details: Vent polymerase variant; cited from earlier work
[2] = tested on: 3′ modified nucleotide analogues; test: Example 1 library screen (ffT-DIG filter assay) and primer extension assay against 9DM control; type: biochemical; details: variants mutated at regions A and B
Procedure: Mutations were introduced simultaneously at two regions of the 9° N DNA polymerase sequence, residues 408-410, and residues 484-486. A library of polymerase variants was screened for the incorporation of the 3′ modified nucleotide analogues.
The variant polymerases have increased activity towards the modified nucleotides utilised in the experiments. Thus, they appear to incorporate nucleotide analogues which have been modified at the 3′ sugar hydroxyl such that the substituent is larger in size than the naturally occurring 3′ hydroxyl group in primer extension assays faster than previously available polymerases which can act as a control polymerase, such as the 9° N (-exo) Y409V/A485L double mutant (designated 9DM herein).
There are many different methods for screening for nucleotide incorporation that are variations on the method of Sagner et al. (1991). One suitable method is described herein for the incorporation of 3′ modified nucleotide analogues that uses a digoxigenin-3-O-methyl-carbonyl-e-aminocaproic acid (DIG) derivative of the relevant nucleotide analogue (ffT-DIG)
Remove tape and 3 MM paper and place filter back in petri dish. Add incorporation solution pre-warmed to temperature that incorporation will be tested at. […]
This is a generalised method. […] Also, have ready eppendorf containing 1 μl CHASE mix for each reaction. […]

ddNTPs = details: cited from earlier work

Molecule: Y412V: Vent DNA polymerase with mutation Y412V (Gardner and Jack 1999)
rate enhancement with cordycepin [1]: 2 fold

incorporation of 3′ modified nucleotide analogues compared to control polymerase (9DM) [2]: improved incorporation
B1: 2E: L408V/Y409A/P410L R484I/A485S/I486N 9° N mutant; SEQ ID NO: 12 (protein)
chain: MILDTDYITENGKPVIRVFKKENGEFKIEYDRTFEPYFYALLKDDSAIEDVKKVTAKRHGTVVKVKRAEKVQKKFLGRPIEVWKLYFNHPQDVPAIRDRIRAHPAVVDIYEYDIPFAKRYLIDKGLIPMEGDEELTMLAFAIATLYHEGEEFGTGPILMISYADGSEARVITWKKIDLPYVDVVSTEKEMIKRFLRVVREKDPDVLITYNGDNFDFAYLKKRCEELGIKFTLGRDGSEPKIQRMGDRFAVEVKGRIHFDLYPVIRRTINLPTYTLEAVYEAVFGKPKEKVYAEEIAQAWESGEGLERVARYSMEDAKVTYELGREFFPMEAQLSRLIGQSLWDVSRSSTGNLVEWFLLRKAYKRNELAPNKPDERELARRRGGYAGGYVKEPERGLWDNIVYLDFRSVALSIIITHNVSPDTLNREGCKEYDVAPEVGHKFCKDFPGFIPSLLGDLLEERQKIKRKMKATVDPLEKKLLDYRQISNKILANSFYGYYGYAKARWYCKECAESVTAWGREYIEMVIRELEEKFGFKVLYADTDGLHATIPGADAETVKKKAKEFLKYINPKLPGLLELEYEGFYVRGFFVTKKKYAVIDEEGKITTRGLEIVRRDWSEIAKETQARVLEAILKHGDVEEAVRIVKEVTEKLSKYEVPPEKLVIHEQITRDLRDYKATGPHVAVAKRLAARGVKIRPGTVISYIVLKGSGRIGDRAIPADEFDPTKHRYDAEYYIENQVLPAVERILKAFGYRKEDLRYQKTKQVGLGAWLKVKGKK
modifications: 9oN polymerase variant (exo-) with L408V/Y409A/P410L R484I/A485S/I486N mutations

B2: A486Y variant of Pfu DNA polymerase: Pfu DNA polymerase with A486Y mutation (Evans et al. 2000) (protein, UniProt P61875 1-775, looked up, variant A486Y)
DNA polymerase: MILDVDYITEEGKPVIRLFKKENGKFKIEHDRTFRPYIYALLRDDSKIEEVKKITGERHGKIVRIVDVEKVEKKFLGKPITVWKLYLEHPQDVPTIREKVREHPAVVDIFEYDIPFAKRYLIDKGLIPMEGEEELKILAFDIETLYHEGEEFGKGPIIMISYADENEAKVITWKNIDLPYVEVVSSEREMIKRFLRIIREKDPDIIVTYNGDSFDFPYLAKRAEKLGIKLTIGRDGSEPKMQRIGDMTAVEVKGRIHFDLYHVITRTINLPTYTLEAVYEAIFGKPKEKVYADEIAKAWESGENLERVAKYSMEDAKATYELGKEFLPMEIQLSRLVGQPLWDVSRSSTGNLVEWFLLRKAYERNEVAPNKPSEEEYQRRLRESYTGGFVKEPEKGLWENIVYLDFRALYPSIIITHNVSPDTLNLEGCKNYDIAPQVGHKFCKDIPGFIPSLLGHLLEERQKIKTKMKETQDPIEKILLDYRQKYIKLLANSFYGYYGYAKARWYCKECAESVTAWGRKYIELVWKELEEKFGFKVLYIDTDGLYATIPGGESEEIKKKALEFVKYINSKLPGLLELEYEGFYKRGFFVTKKRYAVIDEEGKVITRGLEIVRRDWSEIAKETQARVLETILKHGDVEEAVRIVKEVIQKLANYEIPPEKLAIYEQITRPLHEYKAIGPHVAVAKKLAAKGVKIKPGMVIGYIVLRGDGPISNRAILAEEYDPKKHKYDAEYYIENQVLPAVLRILEGFGYRKEDLRYQKTRQVGLTSWLNIKKS
improvement of ratio of ddNTP/dNTP in sequencing ladders compared to wild type (ddNTPs): 150 fold
